Values joined by “and” are separate entries in the source; they are usually repeats but may differ in a detail not shown here. Equal values may be shown once.
B1: E114Q, Q9EYL5 (parent)
chain: MTKKLLTLFIVSMLILTACGKKESATTSSKNGKPLVVVYGDYKCPYCKELDEKVMPKLRKNYIDNHKVEYQFVNLAFLGKDSIVGSRASHAVLMYAPKSFLDFQKQLFAAQQDENKEWLTKELLDKHIKQLHLDKETENKIIKDYKTKDSKSWKAAEKDKKIAKDNHIKTTPTAFINGEKVEDPYDYESYEKLLKDKIK

Variants of: B1
Conditions: Staphylococcus aureus, pH 7, Thermal, CD, reversible: Yes, structure 3BCI, whole UniProt chain shown; for unfolding free energy: 25 °C, Hepes-NaOH 20 mM, NaCl 170 mM; for Tm / change of melting temperature, mutant - wild type (higher = more stable): Phosphate 100 mM

Row | Variant | unfolding free energy | Tm | change of melting temperature, mutant - wild type (higher = more stable)
1 | E114Q | 6.13 kcal/mol | 74.2 °C | 2.3 °C
2 | T171V | 8.19 kcal/mol and 8.42 kcal/mol | 71.8 °C and 73 °C | -0.7 °C and 1.1 °C
